Experimental data from PMC2228010, “Production and characterization of a recombinant anti-MUC1 scFv reactive with human carcinomas” (British Journal of Cancer, 1997).
Substitutions are numbered along the chain they refer to.

Experiments:
[1] = target: T1, immunodominant region related peptide APDTRPAPG (Homo sapiens MUC1 repeat, synthetic); assay: other fluorescence titration; fluorescence quenching in PBS, excitation 290 nm, emission 345 nm; C595 0.12 uM or C595 scFv 0.27 uM, 2.5 ul aliquots of 60 uM peptide added until maximum quenching; Scatchard analysis; settings: both partners purified
T1 construct: stretch of the MUC1 20 amino acid repeat; Free in solution for fluorescence quenching; source: synthetic peptide
T1 chain: APDTRPAPG

[2] = target: T2, 60 mer MUC1 peptide (Homo sapiens MUC1 repeat, synthetic, UniProt P15941); assay: as above; settings: both partners purified
T2 construct: source: synthetic peptide, provided by Dr J Darrell Fontenot

[3] = target: T3, p(1-25) peptide (Homo sapiens MUC1 repeat, synthetic); assay: as above; settings: both partners purified
T3 construct: 25 residues of the MUC1 tandem repeat region; source: synthetic peptide
T3 sequence (peptide, as listed by the source): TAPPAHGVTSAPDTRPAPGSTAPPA

[4] = target: T4, 105 mer MUC1 peptide (Homo sapiens MUC1 repeat, synthetic, UniProt P15941); assay: as above; settings: both partners purified
T4 construct: source: synthetic peptide, provided by Dr J Darrell Fontenot

[5] = target: T5, MUC1 antigen on human breast and bladder carcinoma tissue sections (Homo sapiens, UniProt P15941); assay: immunostaining of cells or tissue; 3 um paraffin sections of breast and transitional cell bladder tumours, no antigen retrieval; primary antibody 1 h; scFv detected with mouse anti-E-Tag (1:50); StreptABC/HRP, diaminobenzidine; settings: one partner purified
T5 construct: MUC1 mucin in tumour tissue; also called breast tumour tissue sections; sections from bladder carcinomas; source: endogenous, archival paraffin sections of breast and transitional cell bladder tumours
T5 sequence (P15941 24-1255): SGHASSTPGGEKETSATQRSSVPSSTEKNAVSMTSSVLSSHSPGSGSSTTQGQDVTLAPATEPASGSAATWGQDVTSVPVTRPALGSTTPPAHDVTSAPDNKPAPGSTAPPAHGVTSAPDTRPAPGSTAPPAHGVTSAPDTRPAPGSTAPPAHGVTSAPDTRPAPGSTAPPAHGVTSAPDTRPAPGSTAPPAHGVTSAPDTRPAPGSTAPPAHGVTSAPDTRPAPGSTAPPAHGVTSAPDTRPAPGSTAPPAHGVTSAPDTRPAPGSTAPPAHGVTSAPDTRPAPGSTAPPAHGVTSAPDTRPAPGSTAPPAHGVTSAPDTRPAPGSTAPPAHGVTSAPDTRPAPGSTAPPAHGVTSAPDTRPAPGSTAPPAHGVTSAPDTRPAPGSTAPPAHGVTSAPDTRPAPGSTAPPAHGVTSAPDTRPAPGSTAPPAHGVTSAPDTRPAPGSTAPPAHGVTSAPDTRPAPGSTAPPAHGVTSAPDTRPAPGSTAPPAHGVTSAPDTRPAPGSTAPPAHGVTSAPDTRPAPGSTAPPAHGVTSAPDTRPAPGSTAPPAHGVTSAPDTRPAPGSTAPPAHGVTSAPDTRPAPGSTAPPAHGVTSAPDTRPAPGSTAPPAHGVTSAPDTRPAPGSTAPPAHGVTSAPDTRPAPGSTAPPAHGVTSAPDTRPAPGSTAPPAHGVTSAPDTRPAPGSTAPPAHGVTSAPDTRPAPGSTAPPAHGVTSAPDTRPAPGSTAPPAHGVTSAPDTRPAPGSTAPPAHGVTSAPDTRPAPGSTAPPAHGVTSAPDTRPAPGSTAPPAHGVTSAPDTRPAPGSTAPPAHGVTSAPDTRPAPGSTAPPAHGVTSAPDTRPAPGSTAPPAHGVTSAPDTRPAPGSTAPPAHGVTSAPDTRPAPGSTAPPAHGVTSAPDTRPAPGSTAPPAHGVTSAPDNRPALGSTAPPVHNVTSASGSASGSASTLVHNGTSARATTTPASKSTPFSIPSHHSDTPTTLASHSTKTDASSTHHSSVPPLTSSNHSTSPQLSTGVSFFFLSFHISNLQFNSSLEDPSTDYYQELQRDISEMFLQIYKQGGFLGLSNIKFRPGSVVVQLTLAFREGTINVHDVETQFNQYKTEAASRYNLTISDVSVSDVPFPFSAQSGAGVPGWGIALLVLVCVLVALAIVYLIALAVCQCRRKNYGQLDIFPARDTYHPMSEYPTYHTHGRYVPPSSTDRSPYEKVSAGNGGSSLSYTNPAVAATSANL

[6] = target: T1, immunodominant region related peptide …; assay: peptide epitope affinity chromatography; filtered bacterial supernatant applied to Sepharose 4B conjugated to APDTRPAPG; washed with PBS, 0.02% sodium azide; bound scFv eluted with 3 M sodium thiocyanate; eluate analysed by SDS-PAGE and anti-E-Tag Western blot; settings: one partner purified

Measured: binding result

B1: Monoclonal antibody C595 (antibody, V domains shown)
VH: EVQLVESGGGLVQPGGSLKLSCAASGFTFSSYGMSWVRQTPDKRLELVATINSNGGSTYYPDSVKGRFTISRDNAKNTLYLQMSSLKSEDTAMYYCARDRDGYDEGFDYWG
VL: QIVLTQSPAIMSASPGEKVTMTCSASSSVSYMHWYQQKSGTSPKRWIYDTSKLASGVPARFSGSGSGTSYSLTISSMEAEDAATYYCQQWSSNPPTFGGGTKLEIK
notes: mouse IgG3 heavy chain constant region; mouse kappa light chain constant region; IgG3, kappa light chain; it was used at stated concentrations in PBS; also called NCRC-48; source: hybridoma (spleen cells of a BALB/c mouse immunized against purified MUC1 urinary mucin)
not listed: [6]
binds: all other assays above

B2: C595 scFv clone 31 (scFv, V domains shown)
VH: QVQLQESGGGLVQPGGSLKLSCAASGFTFSSYGMSWVRQTPDKRLELVATINSNGGSTYYPDSVKGRFTISRDNAKNTLYLQMSSLKSEDTAMYYCARDRDGYDEGFDYWGPGTTVTVSS
VL: B1 VL with Q1D, V3E, A9S, G100R, I105L
notes: it is not written as a part; About 30 kDa on SDS-PAGE; also called recombinant C595 scFv; the scFv; source: E. coli HB2151 (pCANTAB 5E, IPTG), bacterial culture supernatant; not shown: E-Tag, C-terminal, kept
not listed: [1]
binds: all other assays above
